A short description of series [1]: Confocal: 4F2hc membrane expression, colocalization with xCT. Conditions: glycan lost; control: WT 4F2hc reconstitution.
Series [2] is described as follows: Western blot, shSLC3A2 PANC-1. Conditions: glycan lost. On the technique in general: In western blotting, separated proteins are transferred to a membrane and probed.
Series [3] in a line: CHX chase, 4F2hc remaining by western blot.
Series [4] in a line: Flow cytometry, shSLC3A2 MIA PaCa-2. Conditions: glycan lost; control: WT 4F2hc reconstitution in shSLC3A2 MIA PaCa-2. (A flow cytometer gives signals particle by particle.)
Series [5] in a line: Western blot, PANC-1, BxPC-3, MIA PaCa-2. Conditions: glycan changed form; control: Cas9Control cells.
A short description of series [6]: Confocal: membrane colocalization of 4F2hc and xCT. To be noted: glycan lost; control: no tunicamycin.
Series [7] can be described thus: Confocal and flow cytometry, PANC-1. To be noted: glycan lost; control: no PNGase F.

B1: 4F2hc (CD98hc): N365Q (protein)
parent chain: MELQPPEASIAVVSIPRQLPGSHSEAGVQGLSAGDDSELGSHCVAQTGLELLASGDPLPSASQNAEMIETGSDCVTQAGLQLLASSDPPALASKNAEVTGTMSQDTEVDMKEVELNELEPEKQPMNAASGAAMSLAGAEKNGLVKIKVAEDEAEAAAAAKFTGLSKEELLKVAGSPGWVRTRWALLLLFWLGWLGMLAGAVVIIVRAPRCRELPAQKWWHTGALYRIGDLQAFQGHGAGNLAGLKGRLDYLSSLKVKGLVLGPIHKNQKDDVAQTDLLQIDPNFGSKEDFDSLLQSAKKKSIRVILDLTPNYRGENSWFSTQVDTVATKVKDALEFWLQAGVDGFQVRDIENLKDASSFLAEWQNITKGFSEDRLLIAGTNSSDLQQILSLLESNKDLLLTSSYLSDSGSTGEHTKSLVTQYLNATGNRWCSWSLSQARLLTSFLPAQLLRLYQLMLFTLPGTPVFSYGDEIGLDAAALPGQPMEAPVMLWDESSFPDIPGAVSANMTVKGQSEDPGSLLSLFRRLSDQRSKERSLLHGDFHAFSAGPGLFSYIRHWDQNERFLVVLNFGDVGLSAGLQASDLPASASLPAKADLLLSTQPGREEGSPLELERLKLEPHEGLLLRFPYAA
In the case of B1, the localisation_or_trafficking entry in series [1] is “decreases”. For the same protein, the “other: protein levels of xCT, GPX4, B3GNT3” value in series [2] is reported as “decreases”. The degradation_or_half_life entry in series [3] (glycan lost) was “decreases”. Moreover, the “other: membrane expression of partner xCT” value in series [4] was “decreases”.

B2: 4F2hc (CD98hc): 122-311del B3GNT3 (protein)
parent chain: B1 parent chain
For B2, in series [3] (glycan changed form, control: 122-311OE (active B3GNT3) in B3GNT3KO cells), the degradation_or_half_life entry is “decreases”.

B3: 4F2hc (CD98hc): B3GNT3KO (protein)
parent chain: B1 parent chain
For B3, the expression_or_secretion result in series [5] is “increases”. For the same protein, the degradation_or_half_life entry in series [3] (glycan changed form, control: Cas9Control cells) is listed as “decreases”.

B4: 4F2hc (CD98hc): tunicamycin (TM) (protein)
parent chain: B1 parent chain
On to B4, for which the localisation_or_trafficking result in series [6] was “decreases”. Further, the degradation_or_half_life entry in series [3] (glycan lost, control: no tunicamycin) is given as “decreases”.

B5: 4F2hc (CD98hc): 4NQ (protein)
parent chain: B1 parent chain
With B5, the localisation_or_trafficking result in series [1] is “decreases”. For the same protein, the “other: protein levels of xCT, GPX4, B3GNT3” value in series [2] was “decreases”. The degradation_or_half_life result in series [3] (glycan lost) is on record as “decreases”. The “other: membrane expression of partner xCT” value in series [4] is “decreases”.

B6: 4F2hc (CD98hc): PNGase F (protein)
parent chain: B1 parent chain
As to B6, the localisation_or_trafficking entry in series [7] was “abolishes”.

Source of the values: PMC10406883.
